Laboratory results: the supplement of paper PMC10126150
± gives the standard deviation of the averaged measurements.

Test system: ATP
Test: switch fluorescence ratio, 500 uM ATP over buffer (Cy3 cluster intensity, sum of 5 cycles each) (fold (ratio)); higher = stronger signal-on switching upon ATP binding; sequences stand for … in TCGTCGGCAGCGTCAGATGTGTATAAGAGACAGTTTTTTTTTTTTTTTTTTTTTTTTT…TC
Settings: aptamer strand: ATP DNA aptamer (quencher-CACCTGGGGGAGTATTGCGGAGGAAGG + anchor), 100 nM annealed; ATP concentration: 500 uM
Procedure, shortened: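 For every switch-domain sequence, the fluorescence ratio is the mean of per-cluster values, each being summed target-cycle Cy3 intensity over summed buffer-cycle Cy3 intensity. Clusters outside 100-1000 RFU were excluded. On a modified Illumina MiSeq flow-cell, the Cy3-labelled switching-strand clusters were annealed to 100 nM quencher-labelled ATP aptamer, imaged in selection buffer and then after 15 min with 500 uM ATP at 22 °C. Five such cycles were run, with NaOH stripping and re-annealing between them.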
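Also: ATP exposure 15 min at 22 °C before imaging.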

Sequence	switch fluorescence ratio
AAGTGTGACT	1 ± 0.019
CCGGTCTTTT	0.961 ± 0.018
CTTTTTGTGT	0.987 ± 0.019
AGTCGCCTGG	1.003 ± 0.002
GCGTGCATCC	1.03 ± 0.053
TACGGTAGCC	1.043 ± 0.0061
GGTTAGAAGG	0.96 ± 0.031
CTTTGTATGT	0.982 ± 0.029
TAAGGTGGCT	1.01 ± 0.043
TTTCACGAAT	0.993 ± 0.015
TTTTTTGGTT	0.997 ± 0.026
TATGTTATTT	1.02 ± 0.012
GGGGGAACGG	1.08 ± 0.1
CTTGCGTGTC	1.03 ± 0.038
CTGGCTAGAG	0.973 ± 0.018
AGATTGGATA	1.01 ± 0.036
GAAGCTGTTT	1.026 ± 0.0042
CATTCTAAAG	1.02 ± 0.011
ATATCGTTGA	0.978 ± 0.021
TATAAGTAGG	0.968 ± 0.028
TTTGTTTAAA	0.974 ± 0.027
ACGGTATCTT	1.13 ± 0.019
CGGGGAGAGC	1.03 ± 0.039
TTTCATTTTG	1.03 ± 0.017
AGTATTGGTG	0.956 ± 0.026

Sequence	switch fluorescence ratio
TTTCTAAGAA	1.01 ± 0.013
TTTTATGTAA	0.996 ± 0.032
AAATTGCGAC	1.03 ± 0.026
ATAAGTGATC	0.981 ± 0.069
TGGGCAGGGA	0.9817 ± 0.0024
CTTTATAATC	0.986 ± 0.026
GAGGCGTTGC	1.06 ± 0.05
AAGCACCGGG	1.08 ± 0.085
TTCGTGGGGA	0.995 ± 0.025
TTTGATCAGC	0.983 ± 0.031
AGCTGTCTCA	0.991 ± 0.017
CCTGCAGTTT	1.04 ± 0.019
TAGGTTAACT	0.956 ± 0.024
TGGTAAAGCA	1.06 ± 0.11
AATATATCGC	0.977 ± 0.018
TGGGTTTCTG	1.02 ± 0.021
GTTGTGGGGT	0.976 ± 0.025
CTAATGATTG	0.957 ± 0.027
CGATTCGCAG	1.25 ± 0.096
GGATTACTCT	1.0308 ± 0.00015
GGCGCAGCAA	1.47 ± 0.091
CGGGGGTGTC	0.998 ± 0.026
TGGTATGGGT	1.23 ± 0.33
GAGGATCGGG	0.992 ± 0.023
TTGGTACGGC	0.99 ± 0.037

Sequence	switch fluorescence ratio
AAAAAGTGCC	1.07 ± 0.11
GTGGGATGGA	0.978 ± 0.014
CTATGATCTT	0.992 ± 0.012
AAGTTGATGT	1 ± 0.017
TATACTTGGC	1.07 ± 0.059
TTAAATTTTA	1.01 ± 0.019
GATATTAGTG	0.9827 ± 0.0044
ATGCATTTTT	1.02 ± 0.043
CACCGTGGTC	1.14 ± 0.023
TTGCGGCTGG	0.974 ± 0.031
CGACTAGGTA	1 ± 0.062
TTGATTCAGC	1.01 ± 0.012
ACCGCTATGT	1.57 ± 0.019
TATTTATTAG	0.991 ± 0.029
TTAGACATTA	1.02 ± 0.018
TTCGTCGGAT	0.9991 ± 0.0037
CAGGCCGTAT	1.01 ± 0.016
TTTCTGGCCG	0.907 ± 0.046
TTAGAGACGT	1.03 ± 0.027
ACTCAGGAGT	1.011 ± 0.0031
ATGCTTAGGG	0.944 ± 0.02
CCAGGTATGG	1.05 ± 0.013
AACTTGAGAA	1.01 ± 0.012
GCTCATGGTT	1.03 ± 0.046
TCATTTACAT	1.04 ± 0.037

Sequence	switch fluorescence ratio
GGATGGAAGG	0.963 ± 0.033
TGGGATAAGT	1.01 ± 0.018
TGACTTGCGT	0.971 ± 0.042
CTTTTCTTAA	0.996 ± 0.0011
AAAAACTAAT	0.992 ± 0.088
GAGGTCAGGT	1.01 ± 0.021
ACTTGGTAT	1 ± 0.07
GTGCTAACCT	1.271 ± 0.011
GCGGCAAGGA	1.04 ± 0.017
TTTGTGGCTG	0.986 ± 0.037
GGGGTTGTGC	0.971 ± 0.035
AAGTGTTGTC	1.1 ± 0.033
GTGAGGATTT	0.986 ± 0.013
TCGTATGTTT	0.985 ± 0.021
ATGTTTAAG	1.012 ± 0.0094
TTTCGTTTGC	0.998 ± 0.046
TACGGGGTCA	0.971 ± 0.03
GTTGCGAGGT	0.9872 ± 0.004
TGTGGTGAA	1.01 ± 0.011
TTTTCCCGGA	1.013 ± 0.0028
ATTTATGTTC	0.994 ± 0.033
AAGATTAGGT	1 ± 0.059
GGTTTCTAGG	0.99311 ± 0.00018
TTTGGGAATG	1.06 ± 0.13
TTGGCTTACT	1.11 ± 0.11

Sequence	switch fluorescence ratio
TCTTAGGTCA	0.973 ± 0.022
AAGAAGATTT	1 ± 0.012
AATGTTTGTC	1.03 ± 0.1
CCATATCGTT	0.997 ± 0.01
TCGTCATTGC	1.22 ± 0.037
CGGGGAGCTG	1.02 ± 0.036
TGTGTCCTGC	0.965 ± 0.016
ATCTAAGTTC	1.01 ± 0.017
CCTATGCTTC	3.38 ± 1.7
TATCATGAG	1 ± 0.033
CTGATGTGGG	0.964 ± 0.015
AAGGAGAGGG	1 ± 0.096
TAATTTTCGT	1.02 ± 0.03
AAGGTTTTGC	0.99 ± 0.058
AGGTACAGGG	1.01 ± 0.041
GGAAGATGTT	0.985 ± 0.014
TTCGGCGCTG	1.03 ± 0.074
ATTTGAAGTT	0.975 ± 0.043
TTTAGTTCTG	0.9788 ± 0.0094
CCGATTGTGT	1.11 ± 0.017
CCATTGCTCG	1.04 ± 0.05
TGGAAGCCGG	0.957 ± 0.037
ATAGGCGGGA	0.9932 ± 0.00079
CCGGACTATC	2.4 ± 0.086
CAGACGGGGG	1.01 ± 0.026

Sequence	switch fluorescence ratio
TGTGAGGGTT	0.964 ± 0.012
CGGGGGGTGT	1.01 ± 0.023
AGGTAAGTAG	1.01 ± 0.031
CGCGATGGCG	0.98 ± 0.017
GCCTCCTTTT	1.05 ± 0.019
ATTCGAAGGT	1.004 ± 0.0044
TTTAAAAATA	0.9966 ± 0.0049
TGTGGGTATT	1.01 ± 0.028
TAGCGTTTCC	1.097 ± 0.0047
TGCAGAGCAC	1.01 ± 0.028
GCATTGAGTG	0.978 ± 0.03
TGTTTTGAGC	1 ± 0.037
TAAGGGCGCG	1.03 ± 0.035
ATCTCGGGCT	0.973 ± 0.042
AAGTTTATCA	1.003 ± 0.0032
TTTTAGGGGT	1.02 ± 0.046
TGCATGCAGG	1.02 ± 0.015
TTGAAAATCT	1.02 ± 0.029
CGGTCTATGC	1.12 ± 0.035
TGTGGGGGTT	0.986 ± 0.048
TGATAGAAGT	1.01 ± 0.015
GGTGTGGCTC	1 ± 0.044
TTTTTACGGT	1.1 ± 0.15
TTCGTGTATT	1 ± 0.025
TTCGATCGTT	1.01 ± 0.043

Sequence	switch fluorescence ratio
GGTGGGACGG	0.991 ± 0.039
AGAGGGGAAG	1.005 ± 0.0087
GCATATGATC	1.05 ± 0.021
ATGCTGTCTG	1 ± 0.043
CGTTACGCTT	1.05 ± 0.066
GTTGATTTGG	0.981 ± 0.015
GAGGTTGACA	1.03 ± 0.017
CAAGTGCAGA	1.052 ± 0.0078
AGTCACAGCT	0.982 ± 0.032
CAACTAGTGG	0.978 ± 0.037
TCATTTCGGG	0.991 ± 0.038
AAATACCGTT	1.021 ± 0.0057
TTGTATAAGG	1 ± 0.015
GGAGATGCGG	1.02 ± 0.011
CAAGGGGCGT	1.01 ± 0.035
ATATGGAGTT	0.943 ± 0.022
ATGGAGAGAG	0.9929 ± 0.004
TGAAGGGGTG	0.989 ± 0.026
TCTGGGGGGC	0.996 ± 0.075
CTGAGTATGC	1.05 ± 0.026
TAGTTCTCTT	0.989 ± 0.026
TGAGAGGTTT	0.9817 ± 0.0014
CTACTATAAT	1.04 ± 0.043
GCTGTTTTGG	0.965 ± 0.027
TTTGGCTGTG	0.973 ± 0.029

Sequence	switch fluorescence ratio
GTTAGGTATT	0.93 ± 0.023
CTTTGTTACG	1.048 ± 0.0015
TGCATGTGGC	0.988 ± 0.012
CGTCATGATG	1 ± 0.029
TTCACTGGGC	1.01 ± 0.0013
TTAGAGAGGC	0.961 ± 0.054
CGTAGTTTGT	1.03 ± 0.076
AACCTATGCT	1.012 ± 0.0018
GTGGGATTTG	0.9697 ± 0.0069
TTCCGGGAGG	0.993 ± 0.076
GAAGTCCGGT	0.955 ± 0.024
GGGGGCGTGT	0.977 ± 0.019
AGGACAGATA	1.01 ± 0.017
TCGTAGGCCT	0.981 ± 0.061
TTGTGGTCTT	0.9762 ± 0.0075
CCTGGGGCGT	1.06 ± 0.12
GGGTAGAAGT	0.988 ± 0.023
GAGTAACGGT	1.03 ± 0.027
TAAATGGAA	1 ± 0.024
TTTATGCCAT	0.989 ± 0.012
TCCTGATGGC	0.985 ± 0.016
CCTTTATTTA	0.986 ± 0.026
GTGTGCTTAG	1.027 ± 0.004
TATTTCGAAT	1.11 ± 0.18
TTATACATTG	1.02 ± 0.041
